Assay [1] deals with T1, CD73 on the surface of human tumor cells (human, UniProt P21589 27-549).
T1 construct: whole, on cells; One entry for endogenous CD73 on all cell lines; the cell line is named under assay or readout; also called CD73 receptors on the surface of tumor cells; tumor cell CD73
T1 sequence (looked up): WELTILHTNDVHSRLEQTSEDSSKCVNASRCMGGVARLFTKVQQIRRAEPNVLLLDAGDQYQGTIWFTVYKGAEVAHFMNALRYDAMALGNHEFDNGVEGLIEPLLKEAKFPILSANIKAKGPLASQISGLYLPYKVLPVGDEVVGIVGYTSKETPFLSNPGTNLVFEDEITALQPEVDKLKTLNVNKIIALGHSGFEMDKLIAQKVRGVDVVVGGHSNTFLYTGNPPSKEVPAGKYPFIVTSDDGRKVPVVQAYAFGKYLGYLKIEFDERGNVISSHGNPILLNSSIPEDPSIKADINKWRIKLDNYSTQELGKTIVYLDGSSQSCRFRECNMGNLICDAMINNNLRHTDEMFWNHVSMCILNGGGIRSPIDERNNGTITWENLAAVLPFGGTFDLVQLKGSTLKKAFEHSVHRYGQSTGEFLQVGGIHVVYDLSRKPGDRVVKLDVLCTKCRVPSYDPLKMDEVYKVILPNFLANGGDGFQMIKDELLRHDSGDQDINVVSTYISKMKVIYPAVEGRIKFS
The assay can be described thus: flow cytometry, NCI-H1299 cells.

Assay [2] deals with T1, CD73 on the surface of human tumor cells. As to the kind of experiment: flow cytometry, MDA-MB-231 cells.
Assay [3] has as its target T2, extracellular domain of human CD73 protein (CD73-ECD), C-terminus polyhistidine-tagged (human, UniProt P21589 27-547).
T2 construct: also called Human CD73-ECD; human recombinant CD73 enzyme (CD73 extracellular domain)
T2 sequence: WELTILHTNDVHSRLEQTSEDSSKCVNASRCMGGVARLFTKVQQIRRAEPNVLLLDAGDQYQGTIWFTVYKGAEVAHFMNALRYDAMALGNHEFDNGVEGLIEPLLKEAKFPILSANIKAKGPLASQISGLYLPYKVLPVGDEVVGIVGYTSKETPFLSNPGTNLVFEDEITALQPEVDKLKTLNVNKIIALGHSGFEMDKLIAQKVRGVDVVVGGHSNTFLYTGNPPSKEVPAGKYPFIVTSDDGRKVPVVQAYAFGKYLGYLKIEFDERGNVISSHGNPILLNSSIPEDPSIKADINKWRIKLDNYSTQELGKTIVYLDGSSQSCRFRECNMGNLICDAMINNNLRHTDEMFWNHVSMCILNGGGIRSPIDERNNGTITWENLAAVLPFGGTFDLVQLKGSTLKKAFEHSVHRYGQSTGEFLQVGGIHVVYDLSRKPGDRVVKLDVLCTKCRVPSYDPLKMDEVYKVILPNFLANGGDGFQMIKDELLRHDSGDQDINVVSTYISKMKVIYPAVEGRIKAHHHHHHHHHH
As to the kind of experiment: ELISA, coated CD73-ECD.

Assay [4] deals with T1, CD73 on the surface of human tumor cells. The assay can be described thus: FACS, 5 µg/mL antibody, CD73-high Calu-1 against CD73-low MDA-MB-453 cells. On the procedure: 3×10⁵ tumor cells were mixed well with the antibody (final concentration was 5 μg/mL), and then incubated at 4° C. for 1 h. The cells were washed twice with PBS to remove the unbound primary antibody. Then the target cells were incubated with PE-labeled secondary antibody at 4° C. for 30 minutes. The cells were washed twice with PBS to remove the unbound secondary antibody. Finally, the cells were resuspended in 200 μL PBS and the binding rate was detected with a Fluorescence Activated Cell Sorter (FACS).
The chimeric antibody could specifically recognize and bind tumor cells with CD73 high expression.

Assay [5] concerns the target T2, extracellular domain of human CD73 …. As to the kind of experiment: cell-based or functional assay.
For assay [6], the target named is T1, CD73 on the surface of human tumor cells. The assay can be described thus: cell-based or functional assay.
Assay [7] has the same target. The assay can be described thus: FACS, purified antibody serial dilution, MDA-MB-231 cells.
Assay [8] shares this target. The assay can be described thus: cell-based or functional assay. This is another data set of the same source.
Assay [9] shares this target. As to the kind of experiment: FACS, NCI-H1299 cells. How it is done: Alternatively, 100 μL of mAb001c, mAb002c, mAb004c diluted in a 3-fold gradient from 100 nM to 0.046 nM were used as primary antibodies and mixed with 1×10⁵ NCI-H1299 cells suspended in 100 μL RPMI-1640 serum-free medium. Then the obtained solutions were incubated at 4° C. for 1 h, the cells were washed twice with PBS to remove unbound primary antibody, and the target cells were incubated with 200 μL PE-labeled secondary antibody (2 μg/mL) at 4° C. for 30 min. The cells were washed twice with PBS to remove unbound secondary antibody. Finally, the cells were resuspended in 200 μL PBS, and the binding affinities of the test antibodies to CD73 on the cell surface were determined by a flow cytometer.
With reference to the methods in Examples 4-8, the ELISA affinity to CD73-ECD protein, the inhibitory activity on recombinant human CD73 enzyme, the binding affinity to tumor cells, and the inhibitory activity on CD73 enzyme of tumor cells of the above prepared MEDI9447-κ as well as the antibodies mAb001c and mAb002c were detected.

For assay [10] the target is unchanged. As to the kind of experiment: FACS, MDA-MB-231 cells.

B1: mAb004c (antibody, V domains shown)
VH: EVQLQQSGPELVKPGASVKIPCKASGYTFTDYNMDWVKQSHGKSLEWIGDINPNNGGSVYNQKFKGKATLTVDKSSSTAYMELRSLTSEDTAVYYCGRITGTGYWSFDVWGTGTTVTVSP
VL: DIQMTQSPASLSVSVGETVTITCRASENIYSNLAWYQQKQGKSPQLLVYGATNLAEGVPSRFSGSGLGTQYSLKISSLQSEDFGSYYCQHFWGIPWTFGGGTKLEIK
notes: also called human-mouse chimeric antibody mAb004c
Turning to B1, the midpoint of the response in [1], the EC50, lay at 2.2 nM. A half-maximal effect in assay [2] (EC50) was put at 2.5 nM. In assay [3], this molecule gave an EC50 of 0.038 nM. Besides, in assay [4], the “difference in binding rate (MFI), Calu-1 against MDA-MB-453” value (“difference in binding rate (MFI)” for short) is 856 times. Moreover, the “IC50, inhibition of AMP hydrolysis by recombinant human CD73 (CellTiter-Glo)” value (shortened to “IC50, inhibition of AMP hydrolysis”) in assay [5] stood at 0.039 nM. Moreover, in assay [6], the “IC50, inhibition of CD73 enzyme on Calu-1 cells (AMP hydrolysis)” value came out at 0.63 nM; the “IC50, inhibition of CD73 enzyme on MDA-MB-231 cells (AMP hydrolysis)” value came out at 4.16 nM; the “IC50, inhibition of CD73 enzyme on NCI-H1299 cells (AMP hydrolysis)” value was 0.385 nM.

B2: mAb004 (antibody, IgG2b, V domains shown)
VH: EVQLQQSGPELVKPGASVKIPCKASGYTFTDYNMDWVKQSHGKSLEWIGDINPNNGGSVYNQKFKGKATLTVDKSSSTAYMELRSLTSEDTAVYYCGRITGTGYWSFDVWGTGTTVTVSP
VL: DIQMTQSPASLSVSVGETVTITCRASENIYSNLAWYQQKQGKSPQLLVYGATNLAEGVPSRFSGSGLGTQYSLKISSLQSEDFGSYYCQHFWGIPWTFGGGTKLEIK
On to B2, for which the EC50 in assay [7] worked out at 4.69 nM.

B3: mAb001c (antibody, V domains shown)
VH: QVQLQQSGPELVKPGASVRISCKTSGYTFTNYYIYWVKQRPGQGLEWIGWIYPGNLNIKYNEKFKGKSTLTADKSSSTAFMQLSSLTSEDSAVYFCARDDNYAWFAYWGQGTLVTVSS
VL: DIVMTQSHKFMSTSIGDRVSITCKASQDVSTAVAWYQQKPGQSPKLLIYWTNTRHTGVPDRFTGNTSGTEHTLTISSVQAEDLALYYCQQHYSTPFTFGSGTTLEIK
notes: also called human-mouse chimeric antibody mAb001c
Take B3: the EC50 in assay [1] was 1 nM; in [2] it was 0.7 nM; in assay [3] it was 0.024 nM; in assay [9], 1.03 nM; in assay [10], 0.712 nM. Also, the “Calu-1 CD73 Enzyme Inhibition IC50” value in assay [8] is 0.506 nM. For the same molecule, the “MDA-MB-231 CD73 Enzyme Inhibition IC50” value in [8] turned out to be 1.86 nM. Further, the “NCI-H1299 CD73 Enzyme Inhibition IC50” value in [8] came out at 0.236 nM. Moreover, the “difference in binding rate (MFI)” value in assay [4] was determined as 250 times. Also, the “IC50, inhibition of AMP hydrolysis” value in assay [5] amounted to 0.025 nM.

B4: mAb001 (antibody, IgG1, V domains shown)
VH: QVQLQQSGPELVKPGASVRISCKTSGYTFTNYYIYWVKQRPGQGLEWIGWIYPGNLNIKYNEKFKGKSTLTADKSSSTAFMQLSSLTSEDSAVYFCARDDNYAWFAYWGQGTLVTVSS
VL: DIVMTQSHKFMSTSIGDRVSITCKASQDVSTAVAWYQQKPGQSPKLLIYWTNTRHTGVPDRFTGNTSGTEHTLTISSVQAEDLALYYCQQHYSTPFTFGSGTTLEIK
For the molecule B4, in [7], the EC50 came out at 1.24 nM.

B5: mAb001c-VK-SGS (antibody, V domains shown)
VH: QVQLQQSGPELVKPGASVRISCKTSGYTFTNYYIYWVKQRPGQGLEWIGWIYPGNLNIKYNEKFKGKSTLTADKSSSTAFMQLSSLTSEDSAVYFCARDDNYAWFAYWGQGTLVTVSS
VL: DIVMTQSHKFMSTSIGDRVSITCKASQDVSTAVAWYQQKPGQSPKLLIYWTNTRHTGVPDRFTGSGSGTEHTLTISSVQAEDLALYYCQQHYSTPFTFGSGTTLEIK
In turn, B5 gave an EC50 in assay [2] of 1.39 nM. For the same molecule, in [5], the “IC50, inhibition of the catalytic function of recombinant human CD73 (CellTiter-Glo)” value is 0.02 nM.

B6: mAb002c (antibody, V domains shown)
VH: QVQLQQPGAELVKPGASVRLSCKASGYTLTSYWMHWVKKRPGQGLEWIGEINPSNGRSNYNEKFKSKATLTVDRSSSTVYMQLGSLTSEDSAVYYCARRGVSGNYFDYWGQGTTLTVSS
VL: DIKMTQSPSSMYASLGERVTMTCKASQDINTYLSWFQQKPGKSPKTLIYRSNILVDGVPSRFSGSRSGQDYYLTITSLEYEDMGIYYCLQYDEFPYTFGGGTKLELK
notes: also called human-mouse chimeric antibody mAb002c
As for B6, the concentration for a half-maximal effect (EC50) in assay [1] came to 0.39 nM; in assay [2] it was 0.36 nM; in assay [3], 0.016 nM; in assay [9], 0.391 nM; in assay [10], 0.356 nM. Moreover, in [8], the “Calu-1 CD73 Enzyme Inhibition IC50” value came out at 0.281 nM. The “MDA-MB-231 CD73 Enzyme Inhibition IC50” value in assay [8] was 0.791 nM. For the same molecule, the “NCI-H1299 CD73 Enzyme Inhibition IC50” value in assay [8] turned out to be 0.191 nM. In addition, in assay [4], the “difference in binding rate (MFI)” value was 978 times. Also, in [5], the “IC50, inhibition of AMP hydrolysis” value was 0.031 nM.

B7: mAb002 (antibody, IgG1, V domains shown)
VH: QVQLQQPGAELVKPGASVRLSCKASGYTLTSYWMHWVKKRPGQGLEWIGEINPSNGRSNYNEKFKSKATLTVDRSSSTVYMQLGSLTSEDSAVYYCARRGVSGNYFDYWGQGTTLTVSS
VL: DIKMTQSPSSMYASLGERVTMTCKASQDINTYLSWFQQKPGKSPKTLIYRSNILVDGVPSRFSGSRSGQDYYLTITSLEYEDMGIYYCLQYDEFPYTFGGGTKLELK
In assay [7], B7 returned an EC50 of 0.65 nM.

B8: MEDI9447-κ (antibody, V domains shown)
VH: EVQLLESGGGLVQPGGSLRLSCAASGFTFSSYAYSWVRQAPGKGLEWVSAISGSGGRTYYADSVKGRFTISRDNSKNTLYLQMNSLRAEDTAVYYCARLGYGRVDEWGRGTLVTVSS
VL: QSVLTQPPSASGTPGQRVTISCSGSLSNIGRNPVNWYQQLPGTAPKLLIYLDNLRLSGVPDRFSGSKSGTSASLAISGLQSEDEADYYCATWDDSHPGWTFGGGTKLTVL
Regarding B8, in assay [8], the “Calu-1 CD73 Enzyme Inhibition IC50” value is 0.527 nM, the “MDA-MB-231 CD73 Enzyme Inhibition IC50” value was determined as 1.1 nM and the “NCI-H1299 CD73 Enzyme Inhibition IC50” value turned out to be 0.388 nM. Besides, in assay [9], the EC50 was found to be 1.27 nM. This molecule also registered a half-maximal effective concentration (EC50) in [10] of 0.752 nM.

The values above are taken from US20210024646A1 (FUDAN UNIVERSITY, published 2021).
